{"source": "patent US20160159928A1", "about": "(published 2016)", "binders": {"B1": {"name": "VH1-24+CDR3-IL8 IgG (antibody)", "VH": "QVQLVQSGAEVKKPGASVKVSCKVSGYTLTELSMHWVRQAPGKGLEWMGGFDPEDGETIYAQKFQGRVTMTEDTSTDTAYMELSSLRSEDTAVYYCTSVHQETKKYQSPRSAKELRCQCIKTYSKPFHPKFIKELRVIESGPHCANTEIIVKLSDGRELCLDPKENWVQRVVEKFLKRAENSGSGSYTYNYEWHVDVWGQGLLVTVSSAS", "light": "not shown", "notes": "also called VH1-24 BLVCDR3IL8"}, "B2": {"name": "VH1-46+CDR3-IL8 IgG (antibody)", "VH": "QVQLVQSGAEVKKPGASVKVSCKASGYTFTSYYMHWVRQAPGQGLEWMGIINPSGGSTSYAQKFQGRVTMTRDTSTSTVYMELSSLRSEDTAVYYCTSVHQETKKYQSPRSAKELRCQCIKTYSKPFHPKFIKELRVIESGPHCANTEIIVKLSDGRELCLDPKENWVQRVVEKFLKRAENSGSGSYTYNYEWHVDVWGQGLLVTVSSAS", "light": "not shown", "notes": "also called VH1-46 BLVCDR3IL8"}, "B3": {"name": "BLV1H12 IgG (antibody)", "VH": "QVQLRESGPSLVKPSQTLSLTCTASGFSLSDKAVGWVRQAPGKALEWLGSIDTGGNTGYNPGLKSRLSITKDNSKSQVSLSVSSVTTEDSATYYCTSVHQETKKYQSCPDGYRERSDCSNRPACGTSDCCRVSVFGNCLTTLPVSYSYTYNYEWHVDVWGQGLLVTVSSAS", "light": "not shown", "notes": "also called ULcowV"}, "B4": {"name": "VH4-34+CDR3-IL8_CDR1 Cow with light chain V1-51 CDR2 DNN to GDT (antibody)", "VH": "QVQLQQWGAGLLKPSETLSLTCTASGFSLSDKAVGWIRQPPGKGLEWIGEINHSGSTNYNPSLKSRVTISVDTSKNQFSLKLSSVTAADTAVYYCTSVHQETKKYQSPRSAKELRCQCIKTYSKPFHPKFIKELRVIESGPHCANTEIIVKLSDGRELCLDPKENWVQRVVEKFLKRAENSGSGSYTYNYEWHVDVWGQGLLVTVSSAS", "light": "QSVLTQPPSVSAAPGQKVTISCSGSSSNIGNNYVSWYQQLPGTAPKLLIYGDTKRPSGIPDRFSGSKSGTSATLGITGLQTGDEADYYCASAEDSSSNAVFGSGTTLTVLGQPKAAPSVTLFPPSSEELQANKATLVCLISDFYPGAVTVAWKADSSPVKAGVETTTPSKQSNNKYAASSYLSLTPEQWKSHRSYSCQVTHEGSTVEKTVAPTECS"}, "B5": {"name": "VH4-34+CDR3-IL8_CDR1 Cow with light chain V1-51 CDR2 DNNKRP to GDTSRA (antibody)", "VH": "B4 VH", "light": "B4 light with K54S, P56A"}, "B6": {"name": "VH4-34+CDR3-IL8_CDR1 Cow with light chain V1-51 S2A, T5N, P8S, A12G, A13S, P14L & DNN to GDT (antibody)", "VH": "B4 VH", "light": "B4 light with S2A, T5N, P8S, A12G, A13S, P14L"}, "B7": {"name": "VH4-34+CDR3-IL8_CDR1 Cow with light chain V1-51 S2A, T5N, P8S, A12G, A13S, P14L (antibody)", "VH": "B4 VH", "light": "B4 light with S2A, T5N, P8S, A12G, A13S, P14L, G51D, D52N, T53N", "notes": "also called BID 34"}, "B8": {"name": "VH4-34+CDR3-IL8_CDR1 Cow with light chain V1-51 CDR1 I29V, N32G (antibody)", "VH": "B4 VH", "light": "B4 light with I29V, N32G, G51D, D52N, T53N"}, "B9": {"name": "VH4-34+CDR3-IL8_CDR1 Cow_CDR2 Cow with light chain V1-51 CDR2 DNN to GDT (antibody)", "VH": "B4 VH with I48L, E50S, N52D, H53T, S54G, S56N, N58G", "light": "B4 light"}, "B10": {"name": "VH4-34+CDR3-IL8_CDR1 Cow_CDR2 Cow with light chain V1-51 CDR1 I29V, N32G (antibody)", "VH": "B4 VH with I48L, E50S, N52D, H53T, S54G, S56N, N58G", "light": "B4 light with I29V, N32G, G51D, D52N, T53N"}, "B11": {"name": "VH4-34+CDR3-IL8_CDR1 Cow_CDR2 Cow with light chain V1-51 CDR2 DNNKRP to GDTSRA (antibody)", "VH": "B4 VH with I48L, E50S, N52D, H53T, S54G, S56N, N58G", "light": "B4 light with K54S, P56A"}, "B12": {"name": "VH4-34+CDR3-IL8_CDR1 Cow with light chain V1-51 (antibody, human IgG1, lambda)", "heavy": "not shown", "light": "B4 light with G51D, D52N, T53N"}, "B13": {"name": "VH4-34+CDR3-IL8_CDR1 Cow_CDR2 Cow with light chain V1-51 S2A, T5N, P8S, A12G, A13S, P14L (antibody)", "VH": "B4 VH with I48L, E50S, N52D, H53T, S54G, S56N, N58G", "light": "B4 light with S2A, T5N, P8S, A12G, A13S, P14L, G51D, D52N, T53N", "notes": "also called BID 36; VH4-34 MutB IL-8 CDR1cow CDR2cow"}, "B14": {"name": "VH4-34+CDR3-IL8_CDR1 Cow_CDR2 Cow with light chain V1-51 (antibody, human IgG1, lambda)", "heavy": "not shown", "light": "B4 light with G51D, D52N, T53N", "notes": "also called BID 35"}, "B15": {"name": "VH4-34+CDR3-IL8 IgG (BLV1H12 light chain) (antibody)", "VH": "B4 VH with T23A, A24V, S25Y, F27G, L29F, D31G, K32Y, A33Y, V34W, G35S", "light": "not shown", "notes": "also called VH4-34 BLVCDR3IL8"}, "B16": {"name": "VH4-34+CDR3-IL8_CDR2 E50S IgG (BLV1H12 light chain) (antibody)", "VH": "QVQLQQWGAGLLKPSETLSLTCAVYGGSFSGYYWSWIRQPPGKGLEWIGSINHSGSTNYNPSLKSRVTISVDTSKNQFSLKLSSVTAADTAVYYCTSVHQETKKYQSPRSAKELRCQCIKTYSKPFHPKFIKELRVIESGPHCANTEIIVKLSDGRELCLDPKENWVQRVVEKFLKRAENSGSGSYTYNYEWHVDVWGQGLLVTVSSAS", "light": "not shown", "notes": "also called VH4-34 + CDR3-IL8 + E50S"}, "B17": {"name": "VH4-34+CDR3-IL8_CDR2 Cow IgG (BLV1H12 light chain) (antibody)", "VH": "B16 VH with I48L, N52D, H53T, S54G, S56N, N58G", "light": "not shown", "notes": "also called VH4-34 + CDR3-IL8 + Cow CDR2"}, "B18": {"name": "VH4-34+CDR3-IL8_CDR1 Cow IgG (BLV1H12 light chain) (antibody)", "VH": "B4 VH", "light": "not shown", "notes": "also called VH4-34 + CDR3-IL8 + Cow CDR1"}, "B19": {"name": "VH4-34+CDR3-IL8_CDR1 G31D, Y32K IgG (BLV1H12 light chain) (antibody)", "VH": "B16 VH with G31D, Y32K, S50E", "light": "not shown", "notes": "also called VH4-34 + CDR3-IL8 + E31D, Y32K"}, "B20": {"name": "BLV1H12+CDR3-IL8 heavy chain with BLV1H12 light chain (SEQ ID NO: 412) (antibody, human IgG1)", "heavy": "not shown", "light": "QAVLNQPSSVSGSLGQRVSITCSGSSSNVGNGYVSWYQLIPGSAPRTLIYGDTSRASGVPDRFSGSRSGNTATLTISSLQAEDEADYFCASAEDSSSNAVFGSGTTLTVLGQPKSPPSVTLFPPSTEELNGNKATLVCLISDFYPGSVTVVWKADGSTITRNVETTRASKQSNSKYAASSYLSLTSSDWKSKGSYSCEVTHEGSTVTKTVKPSECS"}, "B21": {"name": "VH3-23+CDR3-IL8 IgG (antibody)", "VH": "EVQLLESGGGLVQPGGSLRLSCAASGFTFSSYAMSWVRQAPGKGLEWVSAISGSGGSTYYADSVKGRFTISRDNSKNTLYLQMNSLRAEDTAVYYCTSVHQETKKYQSPRSAKELRCQCIKTYSKPFHPKFIKELRVIESGPHCANTEIIVKLSDGRELCLDPKENWVQRVVEKFLKRAENSGSGSYTYNYEWHVDVWGQGLLVTVSSAS", "light": "not shown", "notes": "also called VH3-23 BLVCDR3IL8"}, "B22": {"name": "VH4-4+CDR3-IL8 IgG (antibody)", "VH": "QVQLQESGPGLVKPSETLSLTCTVSGGSISSYYWSWIRQPAGKGLEWIGRIYTSGSTNYNPSLKSRVTMSVDTSKNQFSLKLSSVTAADTAVYYCTSVHQETKKYQSPRSAKELRCQCIKTYSKPFHPKFIKELRVIESGPHCANTEIIVKLSDGRELCLDPKENWVQRVVEKFLKRAENSGSGSYTYNYEWHVDVWGQGLLVTVSSAS", "light": "not shown", "notes": "also called VH4-4 BLVCDR3IL8"}, "B23": {"name": "VH1-69+CDR3-IL8 IgG (antibody)", "VH": "QVQLVQSGAEVKKPGSSVKVSCKASGGTFSSYAISWVRQAPGQGLEWMGGIIPIFGTANYAQKFQGRVTITADKSTSTAYMELSSLRSEDTAVYYCTSVHQETKKYQSPRSAKELRCQCIKTYSKPFHPKFIKELRVIESGPHCANTEIIVKLSDGRELCLDPKENWVQRVVEKFLKRAENSGSGSYTYNYEWHVDVWGQGLLVTVSSAS", "light": "not shown", "notes": "also called VH1-69 BLVCDR3IL8"}}, "note": "Numbering of substitutions follows the chain as printed. Numbers in names are those of the source.", "data": [{"molecular_target": "T1, CXCR1 (UniProt P25024 1-350, limits assumed)", "T1 construct": "whole, on cells; also called CXCR1 receptor; CXCR1-U2OS", "T1 sequence (looked up)": "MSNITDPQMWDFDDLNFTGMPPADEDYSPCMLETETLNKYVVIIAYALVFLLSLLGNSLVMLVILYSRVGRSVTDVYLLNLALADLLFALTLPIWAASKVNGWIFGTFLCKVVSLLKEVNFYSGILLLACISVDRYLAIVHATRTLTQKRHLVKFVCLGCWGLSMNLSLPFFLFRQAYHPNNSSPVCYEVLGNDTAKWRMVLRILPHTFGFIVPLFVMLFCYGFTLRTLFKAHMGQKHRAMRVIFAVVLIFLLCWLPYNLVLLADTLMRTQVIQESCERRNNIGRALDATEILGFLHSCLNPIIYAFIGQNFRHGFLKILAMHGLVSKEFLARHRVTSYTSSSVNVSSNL", "assay": "flow cytometry, IgG supernatant, fluorescent anti-human Fc; parental U2OS: 5", "description": "(§1) Briefly, a cell line expressing functionally validated CXCR1 derived from U2OS cells was obtained from DiscoveRx and cultured per manufacturer's instructions (Cat#93-0226C3, DiscoveRx Corporation, Freemont, Calif.). The parental cell line U2OS was obtained from ATCC and cultured under the same conditions as the CXCR1 cells. Cell culture supernatants were then tested for binding to cells by flow cytometry. The adherent U2OS or CXCR1-U2OS cells were dissociated with Accutase (Innovative Cell Technologies, Inc., San Diego, Calif.), neutralized with an equal volume of media containing 10% serum, centrifuged at 1000 g, and resuspended in PBS with 2% BSA. Next, cells were dispensed into microtiter plates to achieve between 30,000 to 300,000 cells per well, centrifuged again, and resuspended in cell culture supernatant containing expressed IgG, or a dilution of IgG-containing cell culture supernatant. A fluorescent-conjugated anti-Human Fc antibody was used to detect binding of the expressed antibody to cells.", "values": [{"binder": "B1", "fluorescence on CXCR1-U2OS cells": 23}, {"binder": "B2", "fluorescence on CXCR1-U2OS cells": 6}, {"binder": "B3", "fluorescence on CXCR1-U2OS cells": 9}]}, {"molecular_target": "T1, CXCR1", "assay": "flow cytometry, IgG 10 nM, 2% BSA in PBS plus 2 ug/ml heparin sulfate", "description": "Transfections and ELISA were carried out as described above, and flow cytometry was used to evaluate CXCR1 binding specificity as previously described, with the modification that cells were resuspended in 2% BSA in PBS plus 2 ug/ml Heparin sulfate, and IgGs were normalized to 10 nM during incubation on cells.", "values": [{"binder": "B4", "CXCR1 specificity (CXCR1/parental ratio)": 5.6}, {"binder": "B5", "CXCR1 specificity (CXCR1/parental ratio)": 8}, {"binder": "B6", "CXCR1 specificity (CXCR1/parental ratio)": 6.8}, {"binder": "B7", "CXCR1 specificity (CXCR1/parental ratio)": 4.7}, {"binder": "B8", "CXCR1 specificity (CXCR1/parental ratio)": 8.9}, {"binder": "B9", "CXCR1 specificity (CXCR1/parental ratio)": 16.7}, {"binder": "B10", "CXCR1 specificity (CXCR1/parental ratio)": 11.8}, {"binder": "B11", "CXCR1 specificity (CXCR1/parental ratio)": 6.9}, {"binder": "B12", "CXCR1 specificity (CXCR1/parental ratio)": 7.2}, {"binder": "B13", "CXCR1 specificity (CXCR1/parental ratio)": 12.2}, {"binder": "B14", "CXCR1 specificity (CXCR1/parental ratio)": 11.1}]}, {"molecular_target": "T1, CXCR1", "assay": "flow cytometry; fluorescence on CXCR1-U2OS over parental U2OS cells", "description": "as §1", "values": [{"binder": "B15", "FACS CXCR1/Parental Ratio": 9.3}, {"binder": "B16", "FACS CXCR1/Parental Ratio": 4}, {"binder": "B17", "FACS CXCR1/Parental Ratio": 8}, {"binder": "B18", "FACS CXCR1/Parental Ratio": 2.1}, {"binder": "B19", "FACS CXCR1/Parental Ratio": 8.1}, {"binder": "B3", "FACS CXCR1/Parental Ratio": 1.9}]}, {"molecular_target": "T1, CXCR1", "assay": "flow cytometry; secreted IgG, CXCR1-U2OS over parental U2OS cells", "values": [{"binder": "B20", "FACS CXCR1/Parental Ratio": 5}]}, {"molecular_target": "T1, CXCR1", "assay": "flow cytometry; CXCR1-U2OS over parental U2OS cells", "values": [{"binder": "B12", "CXCR1/Parental Ratio": 2.4}, {"binder": "B14", "CXCR1/Parental Ratio": 3.1}]}, {"molecular_target": "T1, CXCR1", "assay": "flow cytometry; fluorescence on CXCR1-U2OS over parental U2OS cells", "remark": "another data set of the same source", "description": "as §1", "values": [{"binder": "B21", "Ratio of CXCR1/Parental": 2.7}, {"binder": "B1", "Ratio of CXCR1/Parental": 4.3}, {"binder": "B15", "Ratio of CXCR1/Parental": 9.3}, {"binder": "B22", "Ratio of CXCR1/Parental": 3.1}, {"binder": "B23", "Ratio of CXCR1/Parental": 4}, {"binder": "B2", "Ratio of CXCR1/Parental": 1.1}, {"binder": "B3", "Ratio of CXCR1/Parental": 1.9}]}]}
